Experimental data as given in US20020037514A1, “Identification of nuclear receptor-dependent coregulator recruitment” (priority 2000, published 2002).

What was measured:
[1] = biological target: RARα/RXR heterodimer bound to a DR-5 retinoic acid receptor response element (Example 9) (human) (UniProt P10276); test: DNA dependent co-IP with DR-5 RARE, Western anti-ACTR; 1 uM ligand AGN196412
[2] = biological target: T1, RARα-V5/RXRγ/DR-5 ternary complex (Homo sapiens, UniProt P10276); test: LXD peptide competition of ATRA-induced co-activator recruitment (Example 7, FIG. 8A); type: biochemical; conditions: DR-5 RARE; for effect of peptide on ATRA-induced recruitment of ACTR: ACTR peptides at 20 μl (so in the source); for effect of peptide on ATRA-induced recruitment of SRC-1: SRC-1 peptides at 40 μl (so in the source)
T1 construct: the nuclear receptor subunits used in the invention are full length nuclear receptor monomer subunits; expressed in transfected cells; host or cells: CV-1 (green monkey kidney), whole-cell lysate
T1 sequence (P10276 1-462): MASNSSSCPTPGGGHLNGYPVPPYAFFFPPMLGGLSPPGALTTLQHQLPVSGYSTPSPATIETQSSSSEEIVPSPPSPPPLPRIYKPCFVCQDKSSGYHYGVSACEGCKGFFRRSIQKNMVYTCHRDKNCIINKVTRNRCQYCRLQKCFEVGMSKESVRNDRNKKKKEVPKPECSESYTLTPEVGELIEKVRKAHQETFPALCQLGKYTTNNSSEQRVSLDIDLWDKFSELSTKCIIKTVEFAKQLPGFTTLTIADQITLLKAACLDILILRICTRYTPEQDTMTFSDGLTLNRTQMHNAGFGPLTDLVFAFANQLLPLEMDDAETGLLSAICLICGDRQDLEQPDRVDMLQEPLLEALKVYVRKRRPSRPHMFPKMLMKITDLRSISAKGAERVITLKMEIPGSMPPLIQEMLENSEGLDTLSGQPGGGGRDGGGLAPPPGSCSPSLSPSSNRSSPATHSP
T1 sequence (P28705 1-463 partner): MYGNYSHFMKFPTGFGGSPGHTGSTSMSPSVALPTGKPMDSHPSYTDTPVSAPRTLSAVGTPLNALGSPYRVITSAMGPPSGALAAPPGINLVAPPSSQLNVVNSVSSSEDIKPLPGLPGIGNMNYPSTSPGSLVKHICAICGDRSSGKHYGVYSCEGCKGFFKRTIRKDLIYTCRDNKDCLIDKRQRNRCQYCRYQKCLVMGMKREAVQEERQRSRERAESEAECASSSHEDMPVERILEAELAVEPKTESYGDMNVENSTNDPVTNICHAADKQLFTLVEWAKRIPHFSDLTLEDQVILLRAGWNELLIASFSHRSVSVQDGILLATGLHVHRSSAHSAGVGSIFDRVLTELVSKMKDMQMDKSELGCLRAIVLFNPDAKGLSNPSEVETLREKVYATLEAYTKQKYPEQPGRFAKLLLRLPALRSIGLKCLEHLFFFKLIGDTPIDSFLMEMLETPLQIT
From the text: (§1) Nolte, R. T. et al., Nature 395:137-143 (1998). We addressed the importance of each of the three LXDs in mediating co-activator-receptor interaction using synthetic peptides comprising the LXD1, LXD2 or LXD3 amino acid sequences as competitors with SRC-1 in the DNA modified immunoprecipitation methods of the present invention. These peptides have the following amino acid sequences (with the characteristic LXXLL motif shown in bold):
(§2) Transfection, DR-5 oligonucleotide treatment, ligand treatment, immunoprecipitation and detection of associated co-factors were performed essentially as shown in the previous Examples. CV-1 cells were transfected with plasmids expressing either RARα/RXRγ-V5 or with RARγ/RXRα-V5. Synthetic LXD peptides were added to the cell lysate before the addition of retinoids at a concentration of 20 (ACTR) and 40 (SRC-1) […].

RARγ-V5/RXRα heterodimer [3] = biological target: T2, RARγ-V5/RXRα heterodimer (Homo sapiens, UniProt P13631); test: DNA modified immunoprecipitation, co-repressor N-CoR recruitment (Example 6); type: biochemical; conditions: ligand 1 μM
Description: Immunoprecipitation with mouse anti-V5 antibody and Western analysis were conducted as set forth above.

RARγ/RXRα heterodimer = biological target: T3, RARγ/RXRα heterodimer (Homo sapiens, UniProt P13631); test: LXD peptide competition of ATRA-induced co-activator recruitment (Example 7, FIG. 8B); type: biochemical; conditions: DR-5 RARE, compared with the RARα/RXRγ experiment
T3 sequence (P13631 1-454): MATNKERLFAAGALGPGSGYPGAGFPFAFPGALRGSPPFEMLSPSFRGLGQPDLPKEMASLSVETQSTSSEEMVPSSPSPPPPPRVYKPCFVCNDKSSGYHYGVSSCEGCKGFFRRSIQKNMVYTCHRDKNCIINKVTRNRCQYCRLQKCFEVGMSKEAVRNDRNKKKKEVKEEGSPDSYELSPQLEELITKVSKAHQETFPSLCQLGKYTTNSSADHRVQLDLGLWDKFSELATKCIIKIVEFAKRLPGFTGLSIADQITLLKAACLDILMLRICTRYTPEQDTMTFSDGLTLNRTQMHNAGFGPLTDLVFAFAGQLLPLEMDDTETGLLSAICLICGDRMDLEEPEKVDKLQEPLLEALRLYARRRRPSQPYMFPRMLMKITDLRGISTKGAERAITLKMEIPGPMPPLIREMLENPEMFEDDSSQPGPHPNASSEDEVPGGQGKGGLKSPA
T3 sequence (P19793 1-462 partner): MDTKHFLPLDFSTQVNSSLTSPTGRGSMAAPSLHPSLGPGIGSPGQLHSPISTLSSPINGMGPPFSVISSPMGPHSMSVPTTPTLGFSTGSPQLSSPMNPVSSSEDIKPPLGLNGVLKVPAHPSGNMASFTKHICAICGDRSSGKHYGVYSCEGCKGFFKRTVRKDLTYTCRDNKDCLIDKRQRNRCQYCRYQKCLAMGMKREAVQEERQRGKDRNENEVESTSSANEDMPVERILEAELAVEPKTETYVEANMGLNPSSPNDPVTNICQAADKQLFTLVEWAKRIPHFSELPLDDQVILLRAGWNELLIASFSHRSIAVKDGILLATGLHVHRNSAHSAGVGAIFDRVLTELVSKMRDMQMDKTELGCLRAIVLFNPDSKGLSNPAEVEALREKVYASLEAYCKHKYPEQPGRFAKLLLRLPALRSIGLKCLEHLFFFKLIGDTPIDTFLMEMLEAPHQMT
From the text: as §1, §2

RARγ-V5/RXRα heterodimer [4] = biological target: T2, RARγ-V5/RXRα heterodimer; test: anti-V5 co-IP from CV-1 lysate, Western anti-N-CoR; DR-5 RARE, 1 uM ligand
[5] = biological target: RARβ-V5/RXRα heterodimer (human) (UniProt P10826); test: anti-V5 co-IP from CV-1 lysate, Western anti-SRC-1; 1 uM AGN 194204 with DR-5 RARE against 1 uM TTNPB
[6] = biological target: RARα/RXR heterodimer bound to a DR-5 retinoic acid receptor response element (Example 9) (human) (UniProt P10276); test: DNA dependent co-IP with DR-5 RARE, Western anti-SRC-1; 1 uM ligand AGN194794, 196382 or 196412 (which ligand gives which end is not told)
[7] = biological target: RARα/RXR heterodimer bound to a DR-5 retinoic acid receptor response element (Example 9) (human) (UniProt P10276); test: DNA dependent co-IP with DR-5 RARE, Western anti-SRC-1; 1 uM ligand AGN194365

RARβ-V5/RXRα heterodimer (human), sequence (P10826 other isoform, or with tags, fused parts or gaps): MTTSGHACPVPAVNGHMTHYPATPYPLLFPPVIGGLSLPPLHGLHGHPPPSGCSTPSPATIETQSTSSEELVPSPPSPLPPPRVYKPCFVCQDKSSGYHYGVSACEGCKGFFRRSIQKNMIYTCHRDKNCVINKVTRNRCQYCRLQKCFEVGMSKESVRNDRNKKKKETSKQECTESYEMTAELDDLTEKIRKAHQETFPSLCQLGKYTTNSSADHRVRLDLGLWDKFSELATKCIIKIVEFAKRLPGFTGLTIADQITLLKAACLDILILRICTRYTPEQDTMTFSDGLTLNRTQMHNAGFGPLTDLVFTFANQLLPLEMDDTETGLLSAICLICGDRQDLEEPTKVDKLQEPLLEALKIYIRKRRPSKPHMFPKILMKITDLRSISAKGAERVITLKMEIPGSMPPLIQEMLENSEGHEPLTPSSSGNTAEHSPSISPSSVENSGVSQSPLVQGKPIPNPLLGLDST

nuclear receptor co-activator ACTR (other; other documents disagree on this pair)
% recruitment relative to TTNPB [1]: 65%

LLQEKHRTLHKLLQNGNSPAEV (LLQEKHRILHKLLQNGNSPAEV; Nuclear co-activator LXD-containing peptide) [ACTR LXD2]
effect of peptide on ATRA-induced recruitment of ACTR [2]: abolished

KESKDHQLLRYLLDKDEKDLRS (Nuclear co-activator LXD-containing peptide) [SRC-1 LXD3]
effect of peptide on ATRA-induced recruitment of SRC-1 [2]: completely abolished

CC1(C)CCC(c2ccc(F)cc2)c2cc(C#Cc3ccc(C(=O)O)cc3)ccc21 (centres unmarked) [AGN 193840]
N-CoR recruitment (RARγ-V5/RXRα heterodimer [3]; with DR-5 RARE 0.5 μg/ml): led to N-COR recruitment

KYSQTSHKLVQLLTTTAEQQLR (Nuclear co-activator LXD-containing peptide) [SRC-1 LXD1]
effect of peptide on ATRA-induced recruitment of SRC-1 [2]: no effect | amount of SRC-1 associated in the presence of peptide (RARγ/RXRα heterodimer): somewhat greater

nuclear receptor co-repressor N-CoR
fold increase in N-CoR recruitment with AGN 193109 compared to AGN 193840 (RARγ-V5/RXRα heterodimer [4]): 2 fold

LESKGHKKLLQLLTCSSDDRGH (Nuclear co-activator LXD-containing peptide) [ACTR LXD1]
effect of peptide on ATRA-induced recruitment of ACTR [2]: abolished

nuclear receptor co-activator SRC-1, endogenously expressed by CV-1 cells
amount of SRC-1 detected compared to treatment with TTNPB [5]: 30%

Cc1ccc(C2CCC(C)(C)c3ccc(C#Cc4ccc(C(=O)O)cc4)cc32)cc1 (centres unmarked) [AGN 193109]
N-CoR recruitment compared to AGN 193840 (RARγ-V5/RXRα heterodimer [3]; with DR-5 RARE): approximately two-fold increase | N-CoR recruitment (RARγ-V5/RXRα heterodimer [3]; with DR-5 RARE 0.5 μg/ml): led to N-COR recruitment | N-CoR recruitment (RARγ-V5/RXRα heterodimer [3]; with G-5-G DNA element instead of DR-5 RARE): failed to result in the detection of co-repressor

nuclear receptor co-activator SRC-1, endogenously expressed by CV-1 cells (other; other documents disagree on this pair)
% recruitment relative to TTNPB [6]: 23 to 32% | % recruitment compared to TTNPB [7]: 65%
